Source: publication PMC12177922, “In Vivo Ribosome-Amplified MetaBOlism, RAMBO, Effect Observed by Real Time Pulse Chase, RTPC, NMR Spectroscopy” (Biochemistry, 2025)

Substrate: Nc1ncnc2c1ncn2[C@@H]1O[C@H](COP(=O)(O)OP(=O)(O)OP(=O)(O)O)[C@@H](O)[C@H]1O
Assay: direct 1H NMR kinetic assay (FBP peak)
Type: biochemical, Geobacillus stearothermophilus
Conditions: 1 mM F6P, 1 nM enzyme, pH 7.5, 10 mM sodium phosphate, 50 mM KCl, 10 mM MgCl2, 10 °C, no ribosomes, fit with substrate inhibition

B1: PFK-A (Geobacillus stearothermophilus) (protein)
chain: MKRIGVLTSGGDSPGMNAAIRSVVRKAIYHGVEVYGVYHGYAGLIAGNIKKLEVGDVGDIIHRGGTILYTARCPEFKTEEGQKKGIEQLKKHGIEGLVVIGGDGSYQGAKKLTEHGFPCVGVPGTIDNDIPGTDFTIGFDTALNTVIDAIDKIRDTATSHERTYVIEVMGRHAGDIALWSGLAGGAETILIPEADYDMNDVIARLKRGHERGKKHSIIIVAEGVGSGVDFGRQIQEATGFETRVTVLGHVQRGGSPTAFDRVLASRLGARAVELLLEGKGGRCVGIQNNQLVDHDIAEALANKHTIDQRMYALSKELSI
notes: commercial lyophilized enzyme (Sigma-Aldrich)
Km: 84 ± 9.8 µM
kcat: 36 ± 1.5 s⁻¹
